Like-named read-outs stand apart in the source and are kept apart here.
How the values were obtained:
HLA-A*2401 (human) = assay: competition with 125I-labelled probe peptide for purified HLA, gel filtration
[1] = biological target: HLA-A*2401 (purified HLA class I molecule) (human); assay: competition with 125I-labelled standard peptide for purified HLA, gel filtration
HLA-A*0201 (human) [2] = details: remark: other sources report otherwise
HLA-A*0201 (human) [3] = assay: inhibition of 125I probe peptide binding to purified HLA; details: remark: other sources report otherwise
HLA-A*0206 (human) = assay: as above; details: remark: other sources report otherwise
HLA-A*0202 (human) = assay: as above; details: remark: other sources report otherwise
HLA-A*0201 (human) [4] = details: remark: other sources report otherwise; remark: listed apart in the source

A relative binding ratio (IC50 of standard peptide / IC50 of test peptide) (HLA-A*2401 (human)) of 0.015 was found for AMTNLAALF [PAP position 116, 9 amino acids] in this work.

A relative binding ratio (IC50 of standard peptide / IC50 of test peptide) (HLA-A*2401 (human)) of 0.17 was found for CYASGWGSI [Kallikrein position 152, 9 amino acids] in this work.

A relative binding ratio (IC50 of standard peptide / IC50 of test peptide) (HLA-A*2401 (human)) of 0.0002 was found for DFIATLGKL [PAP position 186, 9 amino acids] in this work.

A relative binding ratio (IC50 of standard peptide / IC50 of test peptide) (HLA-A*2401 (human)) of 0.0067 was found for EYIRKRYRKF [PAP position 83, 10 amino acids] in this work.

A relative binding ratio (IC50 of standard peptide / IC50 of test peptide) (HLA-A*2401 (human)) of 0.0017 was found for FFWLDRSVL [PAP position 23, 9 amino acids] in this work.

A relative binding ratio (IC50 of standard peptide / IC50 of test peptide) (HLA-A*2401 (human)) of 0.0016 was found for GFLFLLFFW [PAP position 17, 9 amino acids] in this work.

A relative binding ratio (IC50 of standard peptide / IC50 of test peptide) (HLA-A*2401 (human)) of 0.0007 was found for GFLFLLFFWL [PAP position 17, 10 amino acids] in this work.

A relative binding ratio (IC50 of standard peptide / IC50 of test peptide) (HLA-A*2401 (human)) of 0.0001 was found for GWGSIEPEEF [Kallikrein position 156, 10 amino acids] in this work.

A relative binding ratio (IC50 of standard peptide / IC50 of test peptide) (HLA-A*2401 (human)) of 0.055 was found for HYRKWIKDTI [Kallikrein position 248, 10 amino acids] in this work.

A relative binding ratio (IC50 of standard peptide / IC50 of test peptide) (HLA-A*2401 (human)) of 0.0024 was found for IWSKVYDPL [PAP position 205, 9 amino acids] in this work.

A relative binding ratio (IC50 of standard peptide / IC50 of test peptide) [1] of 0.024 was found for PYASCHLTEL [PAP position 309, 10 amino acids] in this work.

A relative binding ratio (IC50 of standard peptide / IC50 of test peptide) [1] of 0.11 was found for PYKDFIATL [PAP position 183, 9 amino acids] in this work.

A relative binding ratio (IC50 of standard peptide / IC50 of test peptide) [1] of 0.0037 was found for RFAELVGPVI [PAP position 355, 10 amino acids] in this work.

A relative binding ratio (IC50 of standard peptide / IC50 of test peptide) [1] of 0.0001 was found for RFQELESETL [PAP position 163, 10 amino acids] in this work.

A relative binding ratio (IC50 of standard peptide / IC50 of test peptide) [1] of 0.0013 was found for SWPQGFGQL [PAP position 62, 9 amino acids] in this work.

A relative binding ratio (IC50 of standard peptide / IC50 of test peptide) [1] of 0.26 was found for SYKHEQVYI [PAP position 96, 9 amino acids] in this work.

A relative binding ratio (IC50 of standard peptide / IC50 of test peptide) [1] of 0.0005 was found for VFRHGDRSPI [PAP position 41, 10 amino acids] in this work.

An IC50 (HLA-A*0201 (human) [2]) of less than 200 nM was found for LMLLRLSEPA [PSA.117] in this work.

An IC50 (HLA-A*0201 (human) [2]) of less than 200 nM was found for MLLRLSEPA [PSA.118 (9-mer …)] in this work.

An IC50 (HLA-A*0201 (human) [2]) of less than 200 nM was found for ALGTTCYA [PSA.143] in this work.

An IC50 (HLA-A*0201 (human) [2]) of less than 200 nM was found for FLTPKKLQCV [PSA.161] in this work.

An IC50 (HLA-A*0201 (human) [2]) of less than 200 nM was found for KLQCVDLHV [PSA.166] in this work.

An IC50 (HLA-A*0201 (human) [2]) of less than 200 nM was found for LLFFWLDRSV [PAP.21] in this work.

An IC50 (HLA-A*0201 (human) [2]) of less than 200 nM was found for VLAKELKFV [PAP.30] in this work.

An IC50 (HLA-A*0201 (human) [2]) of less than 200 nM was found for FLNESYKHEQV [PAP.92] in this work.

An IC50 (HLA-A*0201 (human) [2]) of less than 200 nM was found for ILLWQPIPV [PAP.135] in this work.

An IC50 (HLA-A*0201 (human) [2]) of less than 200 nM was found for IMYSAHDTTV [PAP.284] in this work.

An IC50 (HLA-A*0201 (human) [2]) of less than 200 nM was found for ALDVYNGLL [PAP.299] in this work.

An IC50 (HLA-A*0201 (human) [2]) of less than 200 nM was found for LVLAGGFFL [PSM.26] in this work.

An IC50 (HLA-A*0201 (human) [2]) of less than 200 nM was found for VLAGGFFLL [PSM.27] in this work.

An IC50 (HLA-A*0201 (human) [2]) of less than 200 nM was found for GMPEGDLVYV [PSM.168] in this work.

An IC50 (HLA-A*0201 (human) [2]) of less than 200 nM was found for GLPSIPVHPI [PSM.288] in this work.

An IC50 (HLA-A*0201 (human) [2]) of less than 200 nM was found for LLQERGVAYI [PSM.441] in this work.

An IC50 (HLA-A*0201 (human) [2]) of less than 200 nM was found for RMMNDQLMFL [PSM.662] in this work.

An IC50 (HLA-A*0201 (human) [2]) of less than 200 nM was found for QLMFLERAFI [PSM.667] in this work.

An IC50 (HLA-A*0201 (human) [2]) of less than 200 nM was found for ALFDIESKV [PSM.711] in this work.

An IC50 (HLA-A*0201 (human) [2]) of less than 200 nM was found for FLRPRSLQCV [HuK2.165] in this work.

An IC50 (HLA-A*0201 (human) [2]) of less than 200 nM was found for SLHLLSNDMCA [HuK2.175] in this work.

An IC50 (HLA-A*0201 (human) [3]) of 208 nM was found for LLLARAASL [Peptide 20.0044 … (PAP.6)] in this work.

An IC50 (HLA-A*0206 (human)) of 95 nM was found for LLLARAASV [Peptide 60.0201 … (PAP.6.V9)] in this work.

An IC50 (HLA-A*0202 (human)) of 5.2 nM, an IC50 (HLA-A*0206 (human)) of 9250 nM and an IC50 (HLA-A*0201 (human) [3]) of 500 nM were found for LLARAASLSL [Peptide 20.0203 … (PAP.7)] in this work.

An IC50 (HLA-A*0202 (human)) of 10 nM and an IC50 (HLA-A*0206 (human)) of 378 nM were found for LLARAASLSV [Peptide 63.0031 … (PAP.7.V10)] in this work.

An IC50 (HLA-A*0206 (human)) of 95 nM and an IC50 (HLA-A*0201 (human) [3]) of 227 nM were found for AASLSLGFLFL [Peptide 63.0137 … (PAP.11)] in this work.

An IC50 (HLA-A*0201 (human) [3]) of 40 nM was found for SLSLGFLFLL [Peptide 1419.51 … (PAP.13)] in this work.

An IC50 (HLA-A*0202 (human)) of 0.6 nM was found for LLFFWLDRSV [Peptide 1097.09 … (PAP.21)] in this work.

An IC50 (HLA-A*0206 (human)) of 822 nM was found for LLFFWLDRSVL [Peptide 63.0139 … (PAP.21)] in this work.

An IC50 (HLA-A*0202 (human)) of 8.1 nM and an IC50 (HLA-A*0201 (human) [3]) of 6.9 nM were found for VLAKELKFVTL [Peptide 63.0142 … (PAP.30)] in this work.

An IC50 (HLA-A*0206 (human)) of 381 nM was found for FLNESYKHEQV [Peptide 1419.55 … (PAP.92)] in this work.

A relative binding ratio (HLA-A*0201 (human) [3]) of 0.0003 was found for DLPTQEPAL [PSA position 136, 9 amino acids] in this work.

An IC50 (HLA-A*0201 (human) [4]) of 24 nM was found for ALSVGCTGV [peptide 1418.15 (HuK2.9.V9)] in this work.

An IC50 (HLA-A*0201 (human) [4]) of 50 nM was found for DLMLLRLSEPV [peptide 63.0109 (HuK2.120.V11)] in this work.

— US20040037843A1
